Data taken from patent US20110305749A1, “HIV-1 Envelope Polypeptides for HIV Vaccine” (priority 2008, published 2011).
Read-outs that look alike come from different tables or passages of the source.

Columns and labels:
[1] = system: Human Peripheral Blood Mononuclear Cells (PBMC); test: Immunosuppression of selected peptides: Con A stimulated lymphocyte proliferation (EdU incorporation); assay type: cell-based; details: Con A (5 ug/mL); for inhibition profile of proliferation at various peptide concentrations: dose-dependence (FIG. 11); for inhibition of lymphocyte proliferation: peptide concentration of 50 uM, 72 hrs, relative to Con A stimulated cells without peptide (FIG. 10)
Excerpt: The peptides are dimerized via the C-terminal Cysteines and added at the concentrations indicated below.

Human PBMC = test: Mixed leukocyte reaction: PBMC stimulated by Jurkat cells expressing HIV envelope variants; details: PBMC with Mitomycin C arrested Jurkat stimulator cells expressing the envelope, 1:1, 96 hrs (FIG. 12)
Description: The experiment utilizes Human PBMC prepared fresh from healthy donors. These are stimulated by adding a human T cell line (Jurkat) at a 1:1 ratio. The jurkat cells have been irreversible arrested by incubating them with 50 ug/mL Mitomycin C for 1 hour prior to PBMC stimulation. Cultures are maintained and lymphocyte proliferation is measured 96 hrs later by EdU incorporation and Click-iT labelling with Oregon Green (Invitrogen, Denmark) as recommended by the manufacturer. The degree of activated lymphocytes is proportional to the flourescence detection.

BAB/No Ag = details: R, i.m.; cited from earlier work
HIV-1 [2] = details: M, cited from earlier work
IFN-gamma = test: Cytokine modulation: IFN-gamma in supernatant of ConA stimulated PBMC (ELISA); details: 50 uM peptide, Con A stimulation of PBMC, 72 hrs, ELISA (FIG. 14)
Description: (§1) Donor PBMC's were maintained at 10^5 cells/well in a 96-well. […] After 72 hrs, lymphocyte proliferation was measured and supernatants analysed by ELISA for levels of the proinflammatory cytokines, IFN-gamma (FIG. 14 grey bar) and TNF-alpha (FIG. 14 black bar).

TNF-alpha = test: Cytokine modulation: TNF-alpha in supernatant of ConA stimulated PBMC (ELISA); details: 50 uM peptide, Con A stimulation of PBMC, 72 hrs, ELISA (FIG. 14)
Description: as §1

β-gal = details: M, i.m.; cited from earlier work
HSV-2 = details: M, i.m.; cited from earlier work
Influenza = details: M, i.m.; cited from earlier work
[3] = HSV-3; M, i.m./i.d.; cited from earlier work
HIV-1 [4] = details: C, i.m.; cited from earlier work

**Q.** With “LQARILAVETLIQNQQLLNLWGC [HIV M/O chimera]” as the molecule, how does the “inhibition profile of proliferation at various peptide concentrations” value [1] read?
**A.** less steep

**Q.** What about the “inhibition of lymphocyte proliferation” value [1] of the same molecule?
**A.** 22%

**Q.** And the “lymphocyte proliferation (activation of PBMC)” value (Human PBMC)?
**A.** decrease is relieved

**Q.** Which “Effects: Ab/IgG” value (BAB/No Ag) does the source give for RANTES here?
**A.** ↑^e

**Q.** And the “Effects: Protection” value (BAB/No Ag)?
**A.** =

**Q.** And the “Effects: CTL” value (HIV-1 [2]; i.m.)?
**A.** ↑

**Q.** Which results are given for LQARVLAVERYLKDQQLLRIWGC [HIV G19R]?
**A.** inhibition profile of proliferation at various peptide concentrations [1]: less steep; inhibition of lymphocyte proliferation [1]: 15%

**Q.** Which “inhibition of lymphocyte proliferation” value [1] does the source give for “LQNRRGLDLLFLKEGGLC (HIV) [CKS-17, reference compound]” here?
**A.** 93%

**Q.** Which results are given for MCP-1?
**A.** Effects: Ab/IgG (BAB/No Ag): ↑^e; Effects: Protection (BAB/No Ag): ↑

**Q.** Which results are given for LQARVLAVERYLKDQQLLGIWGC [CS-3]?
**A.** inhibition of lymphocyte proliferation [1]: 82%; IFN-γ secretion (IFN-gamma): significantly reduces; TNF-α secretion (TNF-alpha): significantly reduces

B1: CD40L (protein, UniProt P27548 112-260, looked up)
CD40 ligand, soluble form: MQRGDEDPQIAAHVVSEANSNAASVLQWAKKGYYTMKSNLVMLENGKQLTVKREGLYYVYTQVTFCSNREPSSQRPFIVGLWLKPSSGSERILLKAANTHSSSQLCEQQSVHLGGVFELQAGASVFVNVTEASQVIHRVGFSSFGLLKL
**Q.** Which “Effects: Ab/IgG” value (β-gal) does the source give for B1 here?
**A.** ↑

**Q.** What about the “Effects: CTL” value (β-gal) of the same molecule?
**A.** ↑

**Q.** What about the “Effects: IgG1/IgG2a” value (β-gal) of the same molecule?
**A.** ↓

**Q.** And the “Effects: Protection” value (β-gal)?
**A.** ↑

B2: MIP-1β (protein, UniProt P14097 24-92, looked up)
C-C motif chemokine 4: APMGSDPPTSCCFSYTSRQLHRSFVMDYYETSSLCSKPAVVFLTKRGRQICANPSEPWVTEYMSDLELN
**Q.** Which “Effects: Ab/IgG” value (BAB/No Ag) does the source give for B2 here?
**A.** ↑^e

**Q.** What about the “Effects: Protection” value (BAB/No Ag) of the same molecule?
**A.** ↓

B3: CD80 (protein, UniProt Q00609 38-306, looked up)
T-lymphocyte activation …: VDEQLSKSVKDKVLLPCRYNSPHEDESEDRIYWQKHDKVVLSVIAGKLKVWPEYKNRTLYDNTTYSLIILGLVLSDRGTYSCVVQKKERGTYEVKHLALVKLSIKADFSTPNITESGNPSADTKRITCFASGGFPKPRFSWLENGRELPGINTTISQDPESELYTISSQLDFNTTRNHTIKCLIKYGDAHVSEDFTWEKPPEDPPDSKNTLVLFGAGFGAVITVVVIVVIIKCFCKHRSCFRRNEASRETNNSLTFGPEEALAEQTVFL
**Q.** Which “Effects: Ab/IgG” value (HIV-1 [2]; i.m.) does the source give for B3 here?
**A.** =

**Q.** And the “Effects: CTL” value (HIV-1 [2]; i.m.)?
**A.** =

**Q.** And the “Effects: DTH” value (HIV-1 [2]; i.m.)?
**A.** =

**Q.** And the “Effects: Ab/IgG” value (HSV-2)?
**A.** =

**Q.** And the “Effects: DTH” value (HSV-2)?
**A.** = and ↑

**Q.** And the “Effects: IgG1/IgG2a” value (HSV-2)?
**A.** =

**Q.** And the “Effects: Protection” value (HSV-2)?
**A.** = and ↑

**Q.** What about the “Effects: CTL” value (Influenza) of the same molecule?
**A.** =

B4: CD86 (protein, UniProt P42082 24-309, looked up)
T-lymphocyte activation …: VSVETQAYFNGTAYLPCPFTKAQNISLSELVVFWQDQQKLVLYEHYLGTEKLDSVNAKYLGRTSFDRNNWTLRLHNVQIKDMGSYDCFIQKKPPTGSIILQQTLTELSVIANFSEPEIKLAQNVTGNSGINLTCTSKQGHPKPKKMYFLITNSTNEYGDNMQISQDNVTELFSISNSLSLSFPDGVWHMTVVCVLETESMKISSKPLNFTQEFPSPQTYWKEITASVTVALLLVMLLIIVCHKKPNQPSRPSNTASKLERDSNADRETINLKELEPQIASAKPNAE
**Q.** Which results are given for B4?
**A.** Effects: Ab/IgG (HIV-1 [2]; i.m.): =; Effects: CTL (HIV-1 [2]; i.m.): ↑; Effects: DTH (HIV-1 [2]; i.m.): ↑; Effects: IgG1/IgG2a (HIV-1 [2]; i.m.): =; Effects: CTL (Influenza): ↑; Effects: Ab/IgG [3]: =; Effects: DTH [3]: =; Effects: IgG1/IgG2a [3]: =; Effects: Protection [3]: =; Effects: CTL (HIV-1 [4]): ↑

B5: TCA-3 (protein, UniProt P10146 24-92, looked up)
C-C motif chemokine 1: KSMLTVSNSCCLNTLKKELPLKFIQCYRKMGSSCPDPPAVVFRLNKGRESCASTNKTWVQNHLKKVNPC
**Q.** What does the source list for B5?
**A.** Effects: Ab/IgG (HIV-1 [2]; i.m.): ↓; Effects: CTL (HIV-1 [2]; i.m.): ↑; Effects: DTH (HIV-1 [2]; i.m.): ↑; Effects: IgG1/IgG2a (HIV-1 [2]; i.m.): ↓

B6: MIP-1α (protein, UniProt P10855 24-92, looked up)
C-C motif chemokine 3: APYGADTPTACCFSYSRKIPRQFIVDYFETSSLCSQPGVIFLTKRNRQICADSKETWVQEYITDLELNA
**Q.** For B6, which “Effects: Ab/IgG” value (BAB/No Ag) is on record?
**A.** ↑^e

**Q.** And the “Effects: Protection” value (BAB/No Ag)?
**A.** ↑

**Q.** What about the “Effects: Ab/IgG” value (HIV-1 [2]; i.m./i.n.) of the same molecule?
**A.** ↑

**Q.** And the “Effects: CTL” value (HIV-1 [2]; i.m./i.n.)?
**A.** ↑

**Q.** What about the “Effects: DTH” value (HIV-1 [2]; i.m./i.n.) of the same molecule?
**A.** ↑

**Q.** And the “Effects: IgG1/IgG2a” value (HIV-1 [2]; i.m./i.n.)?
**A.** ↓

**Q.** What about the “Effects: CTL” value (HIV-1 [2]; i.m.) of the same molecule?
**A.** ↑

**Q.** And the “Effects: IgG1/IgG2a” value (HIV-1 [2]; i.m.)?
**A.** ↑
